Laboratory results from the supplement of paper PMC9170038.

Each sequence was assayed on MS2 coat protein (assay: apparent KD of MS2 coat protein, switch ON state; designed switch direction (-1 OFF switch, 1 ON switch): 1; higher = weaker reporter binding). Conditions: FMN input: 0 or 200 uM; Eterna round: R93 (includes R88 designs).
Outline: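 Apparent KD stands for the median, per design, of fits to normalised cluster binding curves. The curves came from titrating on-chip-transcribed RNA switches on Illumina sequencing clusters with SNAP-549-labelled MS2 coat protein, twofold from 0.7 or 1.5 nM to 3 µM. Buffer was 100 mM Tris-HCl pH 7.5, 80 mM KCl, 4 mM MgCl2, without or with constant ligand.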

“GGGAGGAAGAGAGAGGAUAUCCAAAGGAAAACAUGAGGAUCACCCAUGUAAAAGGUAGGAAAUUGGGAGAAGGCUCAAGAGAAUG [salish99-ss2-055]” and “UAAGUACAUGAGGAUCACCCAUGUUGGAAUAGAGCAGGAUAUGUGCAGAGGGAAAUAAAAACAGAAGGGCUAAGAA [Same State #3]” are within 1.5-fold of each other in “apparent KD of MS2 coat protein” value: 24.1 nM for the first, 25.9 nM for the second.

“UGCCAAUUGGCACAGGAUAUGAGCAUGCUCACAUGAGGAUCACCCAUGUGAUUACCAACGCAAUAUCAGAAGGGUGCCCUCGUCA [Relageor]” and “UAGGGAACAGGGUAGGAUAUGCAUGGUCGUACAUGAGGAUCACCCAUGUAGCCUAGAAAAUAAAUGCAGAAGGGCCAAAAGAAAA [Raritea]” are within 1.5-fold of each other in “apparent KD of MS2 coat protein” value: 32.1 nM for the first, 39.8 nM for the second.

Going from “AACGAACAUGAGGAUCACCCAUGUUCCAACAGUUGAGGAUAUGUGGGUGAAAAUAGCACGGCAGAAGGCGAGUGUA [SameState1 Malc#21]” to “CGGCUACAUGAGGAUCACCCAUGUCAGCCGAGGGCAGGAUAUGCGGUUCAUUCUCAAGCAGCAGAAGGGUCAAAAG [Onmabiat]”, the “apparent KD of MS2 coat protein” value falls from 70.2 nM to 12.8 nM (5.5-fold).

“GGAAAACAUGAGGAUCACCCAUGUGAAAACGUGGGAGGAUAUGCAUGGAAACCAUACUGUGCAGAAGGCCCAUGUC [EteRNA is fun!]” and “AGAAAACAUGAGGAUCACCCAUGUAGGAAUAUGGGAGGAUAUACAAAGACGAAAGUCAGAGUAGAAGGCCUAAAAA [salish99-SS1-086]” are within 1.5-fold of each other in “apparent KD of MS2 coat protein” value: 17.2 nM for the first, 17.5 nM for the second.

Going from “GAAAAACAUGAGGAUCACCCAUGUAGAAAUAUGGGAGGAUAUACGAAGACGAAAGUCGAAGUAGAAGGCCUAAAAG [Mat - Same State 1 - Eli mod - D24]” to “AUAUAAAUAAGCUAGGAUAUACUAAAGUAAACAUGAGGAUCACCCAUGUGAAGAAAGAAACUCAUGUAGAAGGAGCAUAUAUAUA [viburnum 3]”, the “apparent KD of MS2 coat protein” value rises from 27 nM to 45.6 nM (1.7-fold).

Going from “GAUAGACAUGAGGAUCACCCAUGUAGAAUUAUGGGAGGAUAUACAAAGACGAGAGUCAGAGUAGAAGGCCUAGGAA [salish99-ss1-156]” to “GUAGAACAUGAGGAUCACCCAUGUGAAGACGCAUGAGGAUAUAUAAGUAAAUAGCAUAAGAUAGAAGGCAUGAUAA [JR_SS001_Sub1702]”, the “apparent KD of MS2 coat protein” value rises from 24.5 nM to 76 nM (3.1-fold).

Compared with “GAAAAACAUGAGGAUCACCCAUGUAGAAACAUGGGAGGAUAUACAAAGACGAAAGUCAAAGUAGAAGGCCUAAAAG [Mat - Same State 1 - Mod - D159]”, “AAGAAACAUGAGGAUCACCCAUGUAGAAAUAUGGGAGGAUAUACGAAGACGAAAGUCAAAGUAGAAGGCCUAAAGA [Mat - Same State 1 - Eli mod - D106]” is 10-fold lower in “apparent KD of MS2 coat protein” value: 207 nM for the first, 20.3 nM for the second.

“CACAGAGUGGCGUAGGAUAUGUACAUGAGUACAUGAGGAUCACCCAUGUGGGCGUGAAAUUACGAGCAGAAGGGCGUCGCCUGUG [Edradi]” and “GGGAAGAAGAGAGAGGAUAUCCAAAGGAAAACAUGAGGAUCACCCAUGUAAAAGGUAGGAAAUUGGGAGAAGGCUCAAAAGAGAG [salish99-ss2-034]” are within 1.5-fold of each other in “apparent KD of MS2 coat protein” value: 24.4 nM for the first, 20.6 nM for the second.

Going from “GCGGUGCAGGUACAGGAUAUGUUGCUCGUAACAUGAGGAUCACCCAUGUACCUAUGAGAUUAAAUGCAGAAGGGUGCACACCACG [Oneratle]” to “AGAAAUAAACCUCAGGAUAUGGGUAAAUAAACAUGAGGAUCACCCAUGUAAAAGAAAAUAAAAAACCAGAAGGGAGAAAAUAAGA [Designing denovo 1]”, the “apparent KD of MS2 coat protein” value falls from 47.2 nM to 10.4 nM (4.5-fold).

Going from “AACUAACAUGAGGAUCACCCAUGUUACAGCAGUUGAGGAUAUGUGGGUGAAAAUAGCACGGCAGAAGGCGAGUGUA [SameState1 Malc#23]” to “AAUAAGACUAGCAAGGAUAUCGAAAACGAGACAUGAGGAUCACCCAUGUAACAAGUAAAAGUAAACGAGAAGGUGCAGGGUGAAA [JR_SS002_Sub301]”, the “apparent KD of MS2 coat protein” value falls from 237 nM to 56.9 nM (4.2-fold).

First: AACGAACAUGAGGAUCACCCAUGUUCCAGCAGUUGAGGAUAUGUGGGUGAAAAUAGCACGGCAGAAGGCGAGUGUA [SameState1 Malc#22]
Second: AUGAAUAGCCUCGAGGAUAUCCAGUCAUGCACAUGAGGAUCACCCAUGUAAGAGAGAGUAUAAUGGGAGAAGGCGAGUUCUCGGU [JR_SS002_Sub1705]
The “apparent KD of MS2 coat protein” value of the first is 1.6-fold higher: 79.8 nM for the first, 50.5 nM for the second.

Going from “AUAAAACAUGAGGAUCACCCAUGUAGAAAUAUGGGAGGAUAUACUAGAUCGAAAGAUCUAGUAGAAGGCCUCAAAG [JL Mod of Eli 2]” to “AAAACACAUGAGGAUCACCCAUGUAAAAACAAGAGAGGAUAUGCUUGGAAAACAUGCUAUGCAGAAGGCUCAAGUG [SS1 - 10]”, the “apparent KD of MS2 coat protein” value falls from 58.8 nM to 19.2 nM (3.1-fold).

Going from “AUAAAACAUGAGGAUCACCCAUGUAGACAUAUGGGAGGAUAUACUAGAUCGAAAGAUCUAGUAGAAGGUCUUAAAA [JL Mod of Eli 10]” to “AAAAACAUGGUGUAGGAUAUAUUAAUAGUCACAUGAGGAUCACCCAUGUUCAGAUAUCUGAACGAGUAGAAGGACGAUGAAAAAA [Mat - Same state - Malcolm Mod - D109]”, the “apparent KD of MS2 coat protein” value rises from 205 nM to 454 nM (2.2-fold).

Going from “AAAAAACAUGAGGAUCACCCAUGUCAAAAGACAUGAGGAUAUGUGUGGAAACCAUACUAUACAGAAGGCAUAAAAA [SS1 - 1008]” to “AGAAAUAAAAGACAGGAUAUCCAAAAGAAAACAUGAGGAUCACCCAUGUAAAGAAAAUAAAAAUGGGAGAAGGGUCAAAUAAAAA [Mat - Same State 2 - JL mod - D49]”, the “apparent KD of MS2 coat protein” value falls from 105 nM to 34.4 nM (3.1-fold).

First: UGGAGACAUGAGGAUCACCCAUGUGAGAAGAGGCGAGGAUAUCGAAAAAAAAAAAAAAAACGAGAAGGCGCGAGAU [salish99-SS1-008]
Second: GAGGACAUAGUAUAGGAUAUAUGAAUAGUUACAUGAGGAUCACCCAUGUGCAUUUAUAUGCGAACAUAGAAGGGUGGUAGUUAUC [SameState2 Malc#31]
The “apparent KD of MS2 coat protein” value of the first is 4.7-fold lower: 25.9 nM for the first, 122 nM for the second.

“AAAAGACAUGAGGAUCACCCAUGUCAAAACGUAGGAGGAUAUGUCUUGAAAAAAGACUUGACAGAAGGCCUGUGUC [SS1 - 54]” and “CGGAGACAUGAGGAUCACCCAUGUGAGAAGAGGCGAGGAUAUCGAAAGAAAGAAGAGAAACGAGAAGGCGCGAGUU [salish99-SS1-070]” are within 1.5-fold of each other in “apparent KD of MS2 coat protein” value: 15.1 nM for the first, 21.5 nM for the second.

First: GGUACAGCUAGUUAGGAUAUCAGGUGUAAGACAUGAGGAUCACCCAUGUCCUAAGAACAGGUAACUGAGAAGGAACAGGGCGUCC [JR_SS002_Sub415]
Second: AGAAAAGAAAGUAAGGAUAUGCAUAAUAAAACAUGAGGAUCACCCAUGUUAAAAAAAAGAUCAUGGUAGAAGGUACAAAAGAAAG [SS2 M 36]
The “apparent KD of MS2 coat protein” value of the first is 1.6-fold higher: 27.3 nM for the first, 17 nM for the second.

“GAGGACAUAGUACAGGAUAUAUGAAUAGUUACAUGAGGAUCACCCAUGUGCAUUAAUAUGCGAACAUAGAAGGGUGGUAGUUAUC [Mat - Same state - Malcolm Mod - D128]” and “AUAAAACAUGAGGAUCACCCAUGUCCGACAAAUCAAGGAUAUGAGAGCAAAACCAGGCUGUUAGAAGGUGAAAGAA [Atlausa]” are within 1.5-fold of each other in “apparent KD of MS2 coat protein” value: 119 nM for the first, 154 nM for the second.

Compared with “UGGAGACAUGAGGAUCACCCAUGUGAGAAGAGGCGAGGAUAUCGAAAGAAAGAAGAGAAACGAGAAGGCGCGAGGC [salish99-SS1-047]”, “AAAUAAAUGACUAAGGAUAUAUCAGAAAAAACAUGAGGAUCACCCAUGUAAUAAUAAAAAGGGUGAUAGAAGGUAGUCAACAAAC [74%, More Paria 4]” is 1.7-fold lower in “apparent KD of MS2 coat protein” value: 43.3 nM for the first, 25.6 nM for the second.

“CUGAGGAAGAGAGAGGAUAUCCAAAGGAAAACAUGAGGAUCACCCAUGUAAAAGGUAGGAAAUUGGGAGAAGGCUCAAGAGAGAG [salish99-ss2-068]” and “CGGAGACAUGAGGAUCACCCAUGUGAGAAGAGGCGAGGAUAUCGAAAGAAAGAAGAGAAACGAGAAGGCGCGAGGU [salish99-SS1-071]” are within 1.5-fold of each other in “apparent KD of MS2 coat protein” value: 22.4 nM for the first, 24.2 nM for the second.

“UGGAGACAUGAGGAUCACCCAUGUGAGAAGAGGCGAGGAUAUCGAAAGAAAGAAGAGAAACGAGAAGGCGCGAGUU [salish99-SS1-035]” and “AAUCCACAUGAGGAUCACCCAUGUCAGGAAAUGACAGGAUAUAGCGAAAAAAAAAAAAAGCUAGAAGGGUCUAAUU [SameState1-cac2]” are within 1.5-fold of each other in “apparent KD of MS2 coat protein” value: 27.2 nM for the first, 31.3 nM for the second.

Going from “AGGAAACAUGAGGAUCACCCAUGUAAAAAUAUGGGAGGAUAUACGAAAAAAAAAAAAAAAGUAGAAGGCCUAAAAG [Garnet 10]” to “AAAAGACAUGAGGAUCACCCAUGUGAAAACGUACAAGGAUAUGUGUGGAAACCGUACUAUACAGAAGGUGUCUGUC [SS1 - 87]”, the “apparent KD of MS2 coat protein” value falls from 101 nM to 63 nM (1.6-fold).
